The results in this text go back to the nanobody polyreactivity screen of Harvey et al. (2022).

This data set can be described thus: yeast display, Sf9 membrane polyspecificity reagent, FACS + sequencing; frameworks hold sequencing errors. In short, it runs like this: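 Genes from sorted yeast were amplified by colony PCR, read by MiSeq 2 × 250 sequencing and filtered on CDR length. These cells carried a synthetic nanobody library in Saccharomyces cerevisiae BJ5465 and were sorted by FACS into low and high (top ~1%) gates on anti-HA and streptavidin fluorescence. Polyreactivity is labelled according to the gate of origin.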
Regarding “QVQLVESGGGLVQAGGSLRLSCAASGRIFTYNAMGWSRQAPGKERELVAANTSSGGSTYYADSVKGRFTISRDYAKNTVYLQMNSLKPEDTAVYYCATVRRGRDYWGQGTQVTVSS”, the “polyreactivity (PSR sort gate)” value is “high polyreactivity”.

Take “QVQLVESGGGLVQAGGSLRLSCAASGRIFTYNPMGWYRQAPGKERELVAAISTRGGTTRYADSVKGRFTISRDNAKNTVYLQMNSLKPEDTAVYSCNAVSRGSRWDGLVRLDYWGQGTQVTVSS”: the “polyreactivity (PSR sort gate)” value is reported as “high polyreactivity”.

Turning to “QVQLVESGGGLVQAGGSLRLSCAASGRIFTYNPMGWYRQAPGKERELVAVISRRGGSTYYADSVKGRFTISRDNAKNTVYLQMNSLKPEDTAVYYCAADLPSYPYEYWGQGTQVTVSS”, the “polyreactivity (PSR sort gate)” value is “low polyreactivity”.

In the case of “QVQLVESGGGLVQAGGSLRLSCAASGRIFTYYAMGWYIQAPGKERELVASITGSGGSTDYADSVKGRFTISRDNAKNTVYLQRNSLKPEDTAVYYCAADGLSYGPLYNYDYWGQGTQVTVSS”, the “polyreactivity (PSR sort gate)” value is “low polyreactivity”.

Regarding “QVQLVESGGGLVQAGGSLRLSCAASGRIFTYYAMGWYRQAPGKERELVAAISSGGSTYYADSGKGRFTISRDNAKNTVSLQMNSLKPEDTAVYYCAADTIYYFPYDYWGQGTQVTVSS”, the “polyreactivity (PSR sort gate)” value was “high polyreactivity”.

Consider “QVQLVESGGGLVQAGGSLRLSCAASGRIFTYYAMGWYRQAPGKERELVAAITSGGGSTSYADSVKGRFTISRDNAKNTVYLQMNSLKPEDTAVYYCATRRPFYGHNTYYWYNYWGQGTQVTVSS”, for which the “polyreactivity (PSR sort gate)” value is recorded as “high polyreactivity”.

For “QVQLVESGGGLVQAGGSLRLSCAASGRIFTYYGMGWYRQAPGKERELVAAISWSGGSTYYADSVKGRFTISRDNAKNTVYLQMNSLKPVDTAVYYCNAASRYGGDYWGQGTQVTVSS”, the “polyreactivity (PSR sort gate)” value was “high polyreactivity”.

For “QVQLVESGGGLVQAGGSLRLSCAASGRIFVDNAMGWYRQAPGKERELVAAINYSGGGTYYADSVKGRFTISRDNAKNTVYLQMNSLKPEDTAVYYCAADSDSFWGVPSYYWGQGTQVTVSS”, the “polyreactivity (PSR sort gate)” value was “low polyreactivity”.

For “QVQLVESGGGLVQAGGSLRLSCAASGRIFVFYAMGWYRQAPGKERELVAAITASSTRTYYADSVKGRFTISRDNAKNTFYLQMNSLKPEDTAVYYCAADRYYWGQGTQVTVSS”, the “polyreactivity (PSR sort gate)” value is reported as “low polyreactivity”.

With “QVQLVESGGGLVQAGGSLRLSCAASGRIFVGNAKGWYRQAPRKERELVAAIDESGGSTYYADSVKGRFTISRDNAKTTVYLQMNSLKPEDTAGYYCNAVWFWLRYYKYEYWGQGTQVTVSS”, the “polyreactivity (PSR sort gate)” value is reported as “high polyreactivity”.

Turning to “QVQLVESGGGLVQAGGSLRLSCAASGRIFVGNAMGWYRQAPGKERELVAAITRSGSRTYYADSVKGRFTISRDNAKNTVYLQMISLKPEDTAVYYCNAPIRTWPGYDYWGQGTQVTVSS”, the “polyreactivity (PSR sort gate)” value is listed as “high polyreactivity”.

Regarding “QVQLVESGGGLVQAGGSLRLSCAASGRIFVGNTMGWYRQAPGKERELVAAITRSGGSTYYADSAKGRFTISRDNAKNTVYLQMNSLKPEDTAVYYCAARRRGDYWGQGTQVTVSS”, the “polyreactivity (PSR sort gate)” value was “high polyreactivity”.

For “QVQLVESGGGLVQAGGSLRLSCAASGRIFVGYAIGWYRQAPGKERELVAAINRSGSSTYYADSVKGRYTISRDNAKNTFYLQMNSLKPEDTAVYYCNARSGNRYGPRYDYWGQGTQVTVSS”, the “polyreactivity (PSR sort gate)” value is recorded as “high polyreactivity”.

“QVQLVESGGGLVQAGGSLRLSCAASGRIFVGYAMGWYIQAPGKERELVAAINRSGSSTYYADSVKGRFTISRDNAKNTVYLQMNRLKPEDTAVYYCNARSGNRYGPRYDYWGQGTQVTVSS”: the “polyreactivity (PSR sort gate)” value is “high polyreactivity”.

As to “QVQLVESGGGLVQAGGSLRLSCAASGRIFVGYAMGWYRQAPGKERELVAAISSDGGSTYYADSVKGRFTISRDNAKNTVYLQMNSLKPEDTAVYYCNAYYGRFPYYADDYWGQGTQVTVSS”, the “polyreactivity (PSR sort gate)” value is given as “low polyreactivity”.

For “QVQLVESGGGLVQAGGSLRLSCAASGRIFVGYYTMGWYRQAPGKERELVASITWGGGRTYYADSVKGRFTISRDNAKNTVYLQMNSLKPEDTAVYYCAAGYPANYYYLGQGTQVTVSS”, the “polyreactivity (PSR sort gate)” value is “high polyreactivity”.

On to “QVQLVESGGGLVQAGGSLRLSCAASGRIFVHNAMGWYRQAPRKERELVAAISWSGGSTYYADSVKGRFTISRDNAKNTVYLQMNSLKPEDTAVYYCNALDPLYFRYDYWGQGTQVTVSS”, for which the “polyreactivity (PSR sort gate)” value is on record as “low polyreactivity”.

In the case of “QVQLVESGGGLVQAGGSLRLSCAASGRIFVHYAMGWYRQAPGKERELVAAISRSGGSTYYADSVKGRFTISRDTAKNTVYLQMNSLKPEDTAVYYCNTYPLSQFGPYWSGYDYWGQGTQVTVSS”, the “polyreactivity (PSR sort gate)” value is listed as “high polyreactivity”.

“QVQLVESGGGLVQAGGSLRLSCAASGRIFVINAMGWYRQAPGKERELVAAISQSGGSTYYADSVKGRFTISRDNAKNTVYLQMNSLKPEDTAVYYCNALSNVPYDYWGQGTQVTVSS”: the “polyreactivity (PSR sort gate)” value is listed as “low polyreactivity”.

On to “QVQLVESGGGLVQAGGSLRLSCAASGRIFVINAMVWYRQAPGKERELVAGITSSGNTNYADSVKGRFTISRDNAKNTVYLQMNSLNPEDTAVYYCNAQVYLTWLTYWLYYPPNDYWGQGTQVTVSS”, for which the “polyreactivity (PSR sort gate)” value is “low polyreactivity”.

For “QVQLVESGGGLVQAGGSLRLSCAASGRIFVIYAMGWYRQAPGKERELVAVINDDGSTNYADSVKGRFTISRDNAKNTVYLQMNSLKPEDTAVYYCAARGGRPLIHHWPWYSWKYDYWGQGTQVTVSS”, the “polyreactivity (PSR sort gate)” value is listed as “low polyreactivity”.

Turning to “QVQLVESGGGLVQAGGSLRLSCAASGRIFVKYAMGWYRQAPGKERELVAAIRSGGSTYYADSVKGRFTISRDNAKNTVYLQMNRLKPEDTAVYYCAAERNKHHYYTEPYDYWGQGTQVTVSS”, the “polyreactivity (PSR sort gate)” value is recorded as “low polyreactivity”.

Consider “QVQLVESGGGLVQAGGSLRLSCAASGRIFVKYAMGWYRQARGKESELVAAISKSGGSTYYADSVKGRFTISRDNAKTTVYLQINILKPEDTAVYYCAADEYYQVSAYDYWGQGTQVTVSS”, for which the “polyreactivity (PSR sort gate)” value is on record as “low polyreactivity”.

For the sequence “QVQLVESGGGLVQAGGSLRLSCAASGRIFVLNAMGWYRQAPGKERELVAAISGSGSRTYYADSVKGRFTISRDNAKNTVYLQMNSLKPEDTAVYYCNTVSRRSEHTYDYWGQGTQVTVSS”, the “polyreactivity (PSR sort gate)” value was “high polyreactivity”.

For the sequence “QVQLVESGGGLVQAGGSLRLSCAASGRIFVLNAMGWYRQAPGKERELVAGITDGGSTNYADSVKGRFTISRDNAKNTVYLEMNSLKPEDTAVYYCAAVVYEYLYDFQAFVEDAGYYWGQGTQVTVSS”, the “polyreactivity (PSR sort gate)” value is listed as “low polyreactivity”.

In the case of “QVQLVESGGGLVQAGGSLRLSCAASGRIFVLYTMGWYRQAPGKERELVAAISRRGGNTNYADSVKGRFTISRDNAKNTVYLQMNSLKPEDTAVYFCNARWTGARYYYYPMDYWGQGTQVTVSS”, the “polyreactivity (PSR sort gate)” value is given as “high polyreactivity”.

“QVQLVESGGGLVQAGGSLRLSCAASGRIFVPNAMGWYRQAPGKERELVARISRSDGSTYYADSVKGRFTISRDNAKNTVYFPMNSLKPEDTAVYYCAASTTPRWWSFKYYYWGQGTQVTVSS”: the “polyreactivity (PSR sort gate)” value is “high polyreactivity”.

Consider “QVQLVESGGGLVQAGGSLRLSCAASGRIFVPYAMGWYRQAPGKERELVAGISWSGGSTYYADSVKGRFTISRDNAKNTVYLQMNNLKPEDTPVYYCAAAKRRRPFDYWGQGTQVTVSS”, for which the “polyreactivity (PSR sort gate)” value is reported as “high polyreactivity”.

Regarding “QVQLVESGGGLVQAGGSLRLSCAASGRIFVPYAMGWYRQAPGKVREFVAAISYRGGSTYYADSVKGRFTISRDNAKNTVYLQMNSLKPEDTAVYYCAKVIPYRGKVTLDYWGQGTQVTVSS”, the “polyreactivity (PSR sort gate)” value is reported as “low polyreactivity”.

With “QVQLVESGGGLVQAGGSLRLSCAASGRIFVQYDMGWYRQAPGKERELVAAINDSGDITYYADSVKGRFTISRDNAKNTVYLQMNSLRPEDTAVYYCAASAAYYGFYKSVTYDYWGQGTQVTVSS”, the “polyreactivity (PSR sort gate)” value is listed as “low polyreactivity”.
